# Data from the supplement of paper PMC10567573.
# B1: SLC6A17 (parent)
# chain: KAVEEELDAEDRPAWNSKLQYILA
# B2: CDKN1A (parent)
# chain: GRKRRQTSMTDFYHSKRRLIFSKR
# Variants of: B1
# Assay: protein stability index of a GFP-peptide fusion (GPS, HEK-293T) (PSI 1-6); higher = more stable
# Conditions: c terminus: a fixed tail appended
# 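Note: lentivirally expressed fusions sorted by FACS into six bins by GFP to DsRed ratio, PSI derived from sequencing read proportions per bin multiplied by bin number.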
row,Variant,protein stability index
1,A9H,2.41
2,A9E,2.61
3,A9L,2.33
4,A9Y,2.48
5,A9M,1.73
6,A24L,2.28
7,L23M,2.6
8,D11Y,1.42
9,D11S,1.98
10,D11N,2.28
11,D11M,1.69
12,E10H,1.84
13,K1P,3.03
14,L19S,2.75
15,L19R,3.63
16,E4M,1.78
17,E4T,3.27
18,V3S,2.65
19,V3G,2.79
20,S17L,1.99
21,S17P,2.97
22,Y21S,3.92
23,Y21C,4.37

row,Variant,protein stability index
1,Y21L,2.83
2,R12D,3.74
3,R12V,2.54
4,R12P,2.44
5,K18E,3.76
6,K18L,1.98
7,Q20K,2.92
8,Q20G,2.32
9,P13K,2.57
10,E5R,2.04
11,E5I,2.19
12,N16H,2.83
13,W15G,3.82
14,L7H,3.09
15,L7E,3.21
16,L7S,3.61
17,D8M,1.92
18,D8G,2.07
19,D8W,1.83
20,D8H,2.55
21,A2R,2.28
22,A2T,1.83

# Variants of: B2
# Assay: as above
# Conditions: c terminus: a fixed tail appended
row,Variant,protein stability index
1,R5F,2.64
2,R5H,3.17
3,R5S,2.44
4,R5I,3.03
5,R5L,3.53
6,F21M,3.48
7,F21P,1.99
8,F21C,3.58
9,S15M,1.92
10,S15R,3.43
11,S15F,3.02
12,T10H,2.93
13,T10S,2.54
14,D11V,2.44
15,D11W,2.21
16,D11N,2.4
17,D11T,2.2
18,D11I,2.12
19,Q6E,2.73
20,Q6Y,2.67
21,Q6C,3.21
22,Q6S,2.25
23,Q6M,2.04
24,S22T,2.87
25,S22C,2.35

row,Variant,protein stability index
1,S22I,2.53
2,R4M,2.77
3,R4A,2.39
4,R4S,2.85
5,R4D,3.24
6,R4H,2.98
7,R4Y,3.36
8,R4N,4.63
9,Y13F,3.27
10,Y13D,4.24
11,Y13R,3.93
12,Y13V,2.79
13,K16G,2.62
14,K16N,2.99
15,K16Q,2.83
16,K16A,3.51
17,R18V,2.93
18,R18N,2.76
19,R18S,2.77
20,R18F,2.78
21,R18Q,1.47
22,R18A,3.35
23,K3I,2.76
24,K3M,2.76
25,K3T,2.5

row,Variant,protein stability index
1,K3V,2.83
2,S8M,2.68
3,S8A,2.41
4,S8D,2.46
5,S8Q,2.69
6,S8L,3.4
7,S8T,3.3
8,S8F,3.4
9,S8I,2.6
10,K23T,3.3
11,K23Y,2.74
12,K23D,2.95
13,T7S,2.71
14,T7N,2.48
15,T7K,3.09
16,T7A,1.97
17,T7Y,2.65
18,T7D,2.1
19,T7L,2.79
20,H14I,2.72
21,H14P,4.57
22,H14N,3.62
23,H14E,3.45
24,H14Q,3.39
25,H14L,3.02

row,Variant,protein stability index
1,H14R,3.52
2,M9D,4.34
3,M9H,3.21
4,M9R,3.05
5,M9S,3.08
6,M9K,2.62
7,M9N,3.29
8,M9W,3.37
9,M9A,2.66
10,R2T,2.8
11,R2F,3.25
12,R2C,3.93
13,R2D,2.78
14,R2L,2.6
15,R2E,4.5
16,R2Y,2.22
17,I20D,2.84
18,I20W,2.3
19,I20S,2.5
20,I20A,3.46
21,I20K,2.99
22,R17Q,3.46
23,R17P,2.62
24,R17A,2.13
25,R17I,2.97

row,Variant,protein stability index
1,R17M,3.08
2,R17H,2.64
3,R17W,2.28
4,L19Y,3.91
5,L19S,3.31
6,L19I,2.65
7,L19F,2.88
8,F12P,3.34
9,F12Q,2.46
10,F12Y,2.17
11,F12C,2.3
12,F12T,2.78
13,R24N,3.1
14,R24G,3.52
15,R24A,3.13
16,R24M,2.17
17,R24P,3.22
18,R24V,2
19,R24D,3.29
20,R24H,2.4
21,G1E,3.02
22,G1V,2.06
